Patent publication US20260209362A1 (VIB VZW, published 2026)
Each block holds one binder with its values, some of them ahead of it.

Molecular target: T1, human IL-12Rβ2 expressed on cells (human, UniProt Q99665 24-862)
T1 construct: HEK293T cells transiently transfected with a human IL-12Rβ2 plasmid (Genscript OHu21785); also called hIL-12RB2
T1 sequence: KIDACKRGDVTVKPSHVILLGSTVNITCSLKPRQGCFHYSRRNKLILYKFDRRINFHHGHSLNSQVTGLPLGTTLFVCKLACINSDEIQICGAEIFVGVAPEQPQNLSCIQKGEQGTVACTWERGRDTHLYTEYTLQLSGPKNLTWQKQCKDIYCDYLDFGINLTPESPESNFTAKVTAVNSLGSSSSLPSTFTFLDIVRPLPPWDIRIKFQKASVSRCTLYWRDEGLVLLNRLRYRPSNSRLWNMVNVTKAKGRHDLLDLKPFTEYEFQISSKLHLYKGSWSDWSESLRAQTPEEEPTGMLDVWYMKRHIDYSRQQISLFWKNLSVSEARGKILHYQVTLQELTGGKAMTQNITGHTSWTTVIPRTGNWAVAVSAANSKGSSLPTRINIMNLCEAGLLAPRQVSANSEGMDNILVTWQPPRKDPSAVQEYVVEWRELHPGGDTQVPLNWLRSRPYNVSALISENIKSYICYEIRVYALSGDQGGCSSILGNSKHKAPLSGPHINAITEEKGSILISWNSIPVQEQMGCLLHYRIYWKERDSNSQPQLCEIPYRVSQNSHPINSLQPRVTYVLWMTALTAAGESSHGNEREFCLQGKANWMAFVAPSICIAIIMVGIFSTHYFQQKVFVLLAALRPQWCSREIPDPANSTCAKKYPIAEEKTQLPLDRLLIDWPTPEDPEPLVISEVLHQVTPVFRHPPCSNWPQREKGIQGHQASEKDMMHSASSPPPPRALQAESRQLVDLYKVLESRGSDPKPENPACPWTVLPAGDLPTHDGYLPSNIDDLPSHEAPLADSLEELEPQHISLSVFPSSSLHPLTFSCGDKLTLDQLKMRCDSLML
Assay: flow cytometry, P.E. VHH on HEK293T cells transiently expressing hIL-12RB2

B3: anti-IL-12Rβ2 VHH clone 3CAHM11 (VHH, not shown: small tags and cut ends)
VHH: QVQLQESGGGLVQAGGSLRLSCAASGRTFNNYAMAWFRQAPGKEREFIAAITRSDTTLYIDSVKGRFTISRDNAKNTVALQMNSLKPEDTAVYYCAAGMPYSYSDYPRDSKYDYWGRGTQVTVSS
notes: tested as periplasmic extract
dMFI: 684

B4: anti-IL-12Rβ2 VHH clone 3CRHM14 (VHH, not shown: small tags and cut ends)
VHH: QVQLQESGGGLVQAGGSLRLSCAASGRTFSNYAMAWFRQAPGTEREFVAGLSGSGGDTEFYDDSVKGRFAISRDSAKNTVWLQMNSLKPEDTAVYYCAAATHVVVHYGLVRRRGTYDYWGQGTQVTVSS
notes: tested as periplasmic extract
dMFI: 589

More lines, now with the values ahead:

dMFI: 297
B1: anti-IL-12Rβ2 VHH clone 3CRHM73 (VHH, not shown: small tags and cut ends)
VHH: QVQLQESGGGLVQAGGSLSLSCAASGSAFRLNFMGWYRQAPGKQRELVAAINSGGTEIYHDSVKGRFTISRDNADSTVWLQMNSLKPDDTAVYYCAADRGISWSKLAGGMDYWGKGTQVTVSS
notes: tested as periplasmic extract; also called 21060

dMFI: 458
B2: anti-IL-12Rβ2 VHH clone 3CRHM99 (VHH, not shown: small tags and cut ends)
VHH: QVQLQESGGGLVQPGGSLRLSCAASGISSSRLHVGWFRQSPGKEREFVAAISLSGGTQAYTDSVKGRFTISGDNVKNTAYLQMNSLRPEDTAVYYCAARERFIWTWSDLTYDYWGQGTQVTVSS
notes: tested as periplasmic extract; also called 21062
